Experimental data reported in patent US20180016327A1 (Chugai, published 2018).

These binders were tested against T1, human C5 (human, UniProt P01031 19-673; P01031 678-1676, Beta and alpha chains are disulfide-linked and the protein is glycosylated.) (assay: Biacore, captured antibody, pH 7.4, 37 C;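 note: biacore binding response of anti-C5 antibody light chain variants captured on chip with human C5 injected, ACES running buffer containing 1.2 mM CaCl₂, parent light chain antibody set to 100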).
T1 construct: Either in-house recombinant C5 or plasma derived C5 (CALBIOCHEM) was used; also called recombinant human C5; plasma derived human C5
Experimental: The light chain variants were tested for the binding affinity to C5 at pH 7.4 and at 37 degrees C. using Biacore T200 instrument (GE Healthcare) or Biacore 4000 instrument (GE Healthcare). […] Anti-C5 antibodies were captured on an immobilized molecule, and then human C5 was injected. The running buffer used was pH 7.4 ACES Buffer containing 1.2 mM Ca (20 mM ACES, 150 mM NaCl, 1.2 mM CaCl₂, 0.05% Tween 20). A value, % binding, was determined by normalizing binding response with that of antibody comprising parent light chain as 100.

| Binder | % binding (parent = 100) [%] |
| --- | --- |
| CFP0011 11L 91H (antibody, V domains shown) VH: QVQLVQSGAEVKKPGSSVKVSCKASGGTFSSYAISWVRQAPGQGLEWMGGIIPIFGTANYAQKFQGRVTITADESTSTAYMELSSLRSEDTAVYYCARDMSEFLGWSNYYSYPMDVWGQGTTVTVSS VL: DIQMTQSPSSLSASVGDRVTITCRASQSIEDDLAWYQQKPGKAPKLLIYHASSLQSGVPSRFSGSGSGTDFTLTISSLQPEDFATYYCQQHDNSPYTFGQGTKVEIK | 320 |
| CFP0011 11L 91R (antibody, V domains shown) VH: QVQLVQSGAEVKKPGSSVKVSCKASGGTFSSYAISWVRQAPGQGLEWMGGIIPIFGTANYAQKFQGRVTITADESTSTAYMELSSLRSEDTAVYYCARDMSEFLGWSNYYSYPMDVWGQGTTVTVSS VL: DIQMTQSPSSLSASVGDRVTITCRASQSIEDDLAWYQQKPGKAPKLLIYHASSLQSGVPSRFSGSGSGTDFTLTISSLQPEDFATYYCQQRDNSPYTFGQGTKVEIK | -2.6 |
| CFP0011 11L 91Y (antibody, V domains shown) VH: QVQLVQSGAEVKKPGSSVKVSCKASGGTFSSYAISWVRQAPGQGLEWMGGIIPIFGTANYAQKFQGRVTITADESTSTAYMELSSLRSEDTAVYYCARDMSEFLGWSNYYSYPMDVWGQGTTVTVSS VL: DIQMTQSPSSLSASVGDRVTITCRASQSIEDDLAWYQQKPGKAPKLLIYHASSLQSGVPSRFSGSGSGTDFTLTISSLQPEDFATYYCQQYDNSPYTFGQGTKVEIK | 56 |
| CFP0011 11L 92S (antibody, V domains shown) VH: QVQLVQSGAEVKKPGSSVKVSCKASGGTFSSYAISWVRQAPGQGLEWMGGIIPIFGTANYAQKFQGRVTITADESTSTAYMELSSLRSEDTAVYYCARDMSEFLGWSNYYSYPMDVWGQGTTVTVSS VL: DIQMTQSPSSLSASVGDRVTITCRASQSIEDDLAWYQQKPGKAPKLLIYHASSLQSGVPSRFSGSGSGTDFTLTISSLQPEDFATYYCQQSSNSPYTFGQGTKVEIK | 1.1 |
| CFP0011 11L 93D (antibody, V domains shown) VH: QVQLVQSGAEVKKPGSSVKVSCKASGGTFSSYAISWVRQAPGQGLEWMGGIIPIFGTANYAQKFQGRVTITADESTSTAYMELSSLRSEDTAVYYCARDMSEFLGWSNYYSYPMDVWGQGTTVTVSS VL: DIQMTQSPSSLSASVGDRVTITCRASQSIEDDLAWYQQKPGKAPKLLIYHASSLQSGVPSRFSGSGSGTDFTLTISSLQPEDFATYYCQQSDDSPYTFGQGTKVEIK | 5.4 |
| CFP0011 11L 93G (antibody, V domains shown) VH: QVQLVQSGAEVKKPGSSVKVSCKASGGTFSSYAISWVRQAPGQGLEWMGGIIPIFGTANYAQKFQGRVTITADESTSTAYMELSSLRSEDTAVYYCARDMSEFLGWSNYYSYPMDVWGQGTTVTVSS VL: DIQMTQSPSSLSASVGDRVTITCRASQSIEDDLAWYQQKPGKAPKLLIYHASSLQSGVPSRFSGSGSGTDFTLTISSLQPEDFATYYCQQSDGSPYTFGQGTKVEIK | 3.6 |
| CFP0011 11L 93R (antibody, V domains shown) VH: QVQLVQSGAEVKKPGSSVKVSCKASGGTFSSYAISWVRQAPGQGLEWMGGIIPIFGTANYAQKFQGRVTITADESTSTAYMELSSLRSEDTAVYYCARDMSEFLGWSNYYSYPMDVWGQGTTVTVSS VL: DIQMTQSPSSLSASVGDRVTITCRASQSIEDDLAWYQQKPGKAPKLLIYHASSLQSGVPSRFSGSGSGTDFTLTISSLQPEDFATYYCQQSDRSPYTFGQGTKVEIK | 11.7 |
| CFP0011 11L 93S (antibody, V domains shown) VH: QVQLVQSGAEVKKPGSSVKVSCKASGGTFSSYAISWVRQAPGQGLEWMGGIIPIFGTANYAQKFQGRVTITADESTSTAYMELSSLRSEDTAVYYCARDMSEFLGWSNYYSYPMDVWGQGTTVTVSS VL: DIQMTQSPSSLSASVGDRVTITCRASQSIEDDLAWYQQKPGKAPKLLIYHASSLQSGVPSRFSGSGSGTDFTLTISSLQPEDFATYYCQQSDSSPYTFGQGTKVEIK | 4 |
| CFP0011 11L 94T (antibody, V domains shown) VH: QVQLVQSGAEVKKPGSSVKVSCKASGGTFSSYAISWVRQAPGQGLEWMGGIIPIFGTANYAQKFQGRVTITADESTSTAYMELSSLRSEDTAVYYCARDMSEFLGWSNYYSYPMDVWGQGTTVTVSS VL: DIQMTQSPSSLSASVGDRVTITCRASQSIEDDLAWYQQKPGKAPKLLIYHASSLQSGVPSRFSGSGSGTDFTLTISSLQPEDFATYYCQQSDNTPYTFGQGTKVEIK | 207 |
| CFP0011 11L 94Y (antibody, V domains shown) VH: QVQLVQSGAEVKKPGSSVKVSCKASGGTFSSYAISWVRQAPGQGLEWMGGIIPIFGTANYAQKFQGRVTITADESTSTAYMELSSLRSEDTAVYYCARDMSEFLGWSNYYSYPMDVWGQGTTVTVSS VL: DIQMTQSPSSLSASVGDRVTITCRASQSIEDDLAWYQQKPGKAPKLLIYHASSLQSGVPSRFSGSGSGTDFTLTISSLQPEDFATYYCQQSDNYPYTFGQGTKVEIK | -0.7 |
| CFP0011 11L 96F (antibody, V domains shown) VH: QVQLVQSGAEVKKPGSSVKVSCKASGGTFSSYAISWVRQAPGQGLEWMGGIIPIFGTANYAQKFQGRVTITADESTSTAYMELSSLRSEDTAVYYCARDMSEFLGWSNYYSYPMDVWGQGTTVTVSS VL: DIQMTQSPSSLSASVGDRVTITCRASQSIEDDLAWYQQKPGKAPKLLIYHASSLQSGVPSRFSGSGSGTDFTLTISSLQPEDFATYYCQQSDNSPFTFGQGTKVEIK | 82.8 |
| CFP0011 11L 96H (antibody, V domains shown) VH: QVQLVQSGAEVKKPGSSVKVSCKASGGTFSSYAISWVRQAPGQGLEWMGGIIPIFGTANYAQKFQGRVTITADESTSTAYMELSSLRSEDTAVYYCARDMSEFLGWSNYYSYPMDVWGQGTTVTVSS VL: DIQMTQSPSSLSASVGDRVTITCRASQSIEDDLAWYQQKPGKAPKLLIYHASSLQSGVPSRFSGSGSGTDFTLTISSLQPEDFATYYCQQSDNSPHTFGQGTKVEIK | 5.1 |
| CFP0011 11L 96I (antibody, V domains shown) VH: QVQLVQSGAEVKKPGSSVKVSCKASGGTFSSYAISWVRQAPGQGLEWMGGIIPIFGTANYAQKFQGRVTITADESTSTAYMELSSLRSEDTAVYYCARDMSEFLGWSNYYSYPMDVWGQGTTVTVSS VL: DIQMTQSPSSLSASVGDRVTITCRASQSIEDDLAWYQQKPGKAPKLLIYHASSLQSGVPSRFSGSGSGTDFTLTISSLQPEDFATYYCQQSDNSPITFGQGTKVEIK | 0.8 |
| CFP0011 11L 96L (antibody, V domains shown) VH: QVQLVQSGAEVKKPGSSVKVSCKASGGTFSSYAISWVRQAPGQGLEWMGGIIPIFGTANYAQKFQGRVTITADESTSTAYMELSSLRSEDTAVYYCARDMSEFLGWSNYYSYPMDVWGQGTTVTVSS VL: DIQMTQSPSSLSASVGDRVTITCRASQSIEDDLAWYQQKPGKAPKLLIYHASSLQSGVPSRFSGSGSGTDFTLTISSLQPEDFATYYCQQSDNSPLTFGQGTKVEIK | 3.2 |
| CFP0011 11L 96P (antibody, V domains shown) VH: QVQLVQSGAEVKKPGSSVKVSCKASGGTFSSYAISWVRQAPGQGLEWMGGIIPIFGTANYAQKFQGRVTITADESTSTAYMELSSLRSEDTAVYYCARDMSEFLGWSNYYSYPMDVWGQGTTVTVSS VL: DIQMTQSPSSLSASVGDRVTITCRASQSIEDDLAWYQQKPGKAPKLLIYHASSLQSGVPSRFSGSGSGTDFTLTISSLQPEDFATYYCQQSDNSPPTFGQGTKVEIK | -1.6 |
| CFP0011 11L 96W (antibody, V domains shown) VH: QVQLVQSGAEVKKPGSSVKVSCKASGGTFSSYAISWVRQAPGQGLEWMGGIIPIFGTANYAQKFQGRVTITADESTSTAYMELSSLRSEDTAVYYCARDMSEFLGWSNYYSYPMDVWGQGTTVTVSS VL: DIQMTQSPSSLSASVGDRVTITCRASQSIEDDLAWYQQKPGKAPKLLIYHASSLQSGVPSRFSGSGSGTDFTLTISSLQPEDFATYYCQQSDNSPWTFGQGTKVEIK | 5.4 |
| CFP0017 17L 32N (antibody, V domains shown) VH: QVQLVQSGAEVKKPGSSVKVSCKASGGTFSSYAISWVRQAPGQGLEWMGGIIPIFGTANYAQKFQGRVTITADESTSTAYMELSSLRSEDTAVYYCARGGWWGGALDYWGQGTLVTVSS VL: DIQMTQSPSSLSASVGDRVTITCRASQSIEDNLAWYQQKPGKAPKLLIYHASSLQSGVPSRFSGSGSGTDFTLTISSLQPEDFATYYCQQSDSYPLTFGQGTKVEIK | 27 |
| CFP0021 (antibody, V domains shown, IgG format) VH: QVQLVESGGGLVQPGGSLRLSCAASGFTFSDHYMDWVRQAPGKGLEWVGRTRNKANSYTTEYAASVKGRFTISRDDSKNSLYLQMNSLKTEDTAVYYCARTGMMYWGIFDVWGQGTLVTVSS VL: DIQMTQSPSSLSASVGDRVTITCRASQSIEDDLAWYQQKPGKAPKLLIYHASTLQSGVPSRFSGSGSGTDFTLTISSLQPEDFATYYCQQHDSYPLTFGQGTKVEIK | 100 |
| CFP0021 21L 30A (antibody, V domains shown) VH: QVQLVESGGGLVQPGGSLRLSCAASGFTFSDHYMDWVRQAPGKGLEWVGRTRNKANSYTTEYAASVKGRFTISRDDSKNSLYLQMNSLKTEDTAVYYCARTGMMYWGIFDVWGQGTLVTVSS VL: DIQMTQSPSSLSASVGDRVTITCRASQSIADDLAWYQQKPGKAPKLLIYHASTLQSGVPSRFSGSGSGTDFTLTISSLQPEDFATYYCQQHDSYPLTFGQGTKVEIK | 76.9 |
| CFP0021 21L 30D (antibody, V domains shown) VH: QVQLVESGGGLVQPGGSLRLSCAASGFTFSDHYMDWVRQAPGKGLEWVGRTRNKANSYTTEYAASVKGRFTISRDDSKNSLYLQMNSLKTEDTAVYYCARTGMMYWGIFDVWGQGTLVTVSS VL: DIQMTQSPSSLSASVGDRVTITCRASQSIDDDLAWYQQKPGKAPKLLIYHASTLQSGVPSRFSGSGSGTDFTLTISSLQPEDFATYYCQQHDSYPLTFGQGTKVEIK | 87.5 |
| CFP0021 21L 30H (antibody, V domains shown) VH: QVQLVESGGGLVQPGGSLRLSCAASGFTFSDHYMDWVRQAPGKGLEWVGRTRNKANSYTTEYAASVKGRFTISRDDSKNSLYLQMNSLKTEDTAVYYCARTGMMYWGIFDVWGQGTLVTVSS VL: DIQMTQSPSSLSASVGDRVTITCRASQSIHDDLAWYQQKPGKAPKLLIYHASTLQSGVPSRFSGSGSGTDFTLTISSLQPEDFATYYCQQHDSYPLTFGQGTKVEIK | 59.7 |
